Assay results taken from paper PMC12637021, “Talin–tensin3 interactions regulate fibrillar adhesion formation and tensin3 phase separation” (The Journal of Cell Biology, 2025).

Tests used:
U2OS TNS3KO cells [1] = experiment: vinculin-positive FAs on VN; type: cell-based, human; conditions: TNS3-WT vs TNS3-L702E; VN-coated, serum-free; n = 74 (WT) and 51 (L702E) cells
Method: (§1) Cells were fixed in 4% paraformaldehyde (PFA, Sigma-Aldrich), which had been prewarmed to 37°C for 15 min before being washed three times with PBS. For immunofluorescence staining, cells were permeabilized with 0.5% Triton X-100 (Sigma-Aldrich) at room temperature for 5 min before being washed three times with PBS. Blebbistatin (Tocris Bioscience) was diluted in dimethyl sulfoxide (Sigma-Aldrich) and used at a final concentration of 50 μM. […]
(§2) Analysis of cell adhesion sites, FN fibrils, and LLPS condensates was performed using FIJI/ImageJ (version 1.54f) software ([Schindelin et al., 2012]). […] Prior to adhesion quantification, the images were background-subtracted using a rolling ball algorithm, followed by thresholding of adhesion sites and Analyse Particles functions in FIJI/ImageJ to quantify adhesions. Adhesion sites with sizes between 0.4 and 10 μm^2 were counted, except for adhesions in blebbistatin-treated cells, which were counted with sizes between 0.2 and 4 μm^2. […]

U2OS TNS3KO cells [2] = experiment: adhesion stability under blebbistatin, U2OS TNS3KO cells; type: cell-based, human; conditions: blebbistatin 50 µM
Method: Cells were fixed in 4% paraformaldehyde (PFA, Sigma-Aldrich), which had been prewarmed to 37°C for 15 min before being washed three times with PBS. For immunofluorescence staining, cells were permeabilized with 0.5% Triton X-100 (Sigma-Aldrich) at room temperature for 5 min before being washed three times with PBS. Blebbistatin (Tocris Bioscience) was diluted in dimethyl sulfoxide (Sigma-Aldrich) and used at a final concentration of 50 μM. The following primary antibodies were diluted in 1% bovine serum albumin (BSA, Sigma-Aldrich): mouse anti-α5 integrin (SNAKA51, 1:100, NBP2-50146; Novus Biologicals), rat anti-β1 integrin (9EG7, 1:200; 553715; BD Biosciences), mouse anti-FN (IST-9, 1:100, ab6328; Abcam), rabbit anti-tensin3 (1:200, HPA055338; Atlas), mouse anti-EEA1 (1:500, 68065-1-IG; Proteintech), mouse anti-LAMP1 (1:200, ab320851; Abcam), mouse anti-paxillin (349, 1:400, mab3060; Sigma-Aldrich), rabbit anti-talin1 (1:200, 82856-4-RR; Proteintech), mouse anti-vinculin (hVin1, 1:500, V9264; Sigma-Aldrich), rabbit anti-KANK2 (1:100, HPA015643; Sigma-Aldrich), rabbit anti-kindlin2 (1:100, 11453-1-AP; Proteintech), rabbit anti-GIT1 (1:200, 26247-1-AP; Proteintech), mouse anti-phosphotyrosine (4G10, 1:200, 05-321X; Sigma-Aldrich), rabbit anti-G3BP1 (1:600, 13057-2-AP; Proteintech), rabbit anti-TDP43 (1:400, 10782-2-AP; Proteintech), and rabbit anti-GIGYF1 (1:400, ab121784; Abcam). […]
as §2

NIH3T3 cells [3] = experiment: adhesion stability under blebbistatin, NIH3T3 cells; type: cell-based, mouse; conditions: blebbistatin 50 µM, 60 min; n = 64 (WT), 49 (L702E), 62 (ΔPTB), 71 (Cterm) cells
Method: as §1, §2

NIH3T3 cells [4] = experiment: tensin3 condensate formation, NIH3T3 cells; type: cell-based, mouse
Method: To establish a correlation between tensin3 expression and condensation formation, a maximum intensity Z-projection was performed on Z-stack images of NIH3T3 cells (step depth 0.2 μm). The integrated fluorescence intensity was measured by normalizing the mean pixel intensity of each cell to the average of all values in cells expressing mCh-TNS3. To measure the condensate coverage in NIH3T3 cells, the images were background-subtracted (rolling ball) and then thresholded. This was followed by the Analyse Particles function in FIJI/ImageJ to select round condensate structures (circularity 0.7–1.0) ([Bussi et al., 2023]; [Dumelie et al., 2024]) with a size larger than 0.1 μm^2. The same settings were applied to quantify the number of condensates in NIH3T3 and HFF cells.
The percentage of NIH3T3 cells transfected with mCh-TNS3 that form phase-separated condensates was quantified manually in images (610 × 499 μm) acquired with a 20× objective. To quantify the mean radius (R) of the condensates, the area covered by the condensates was divided by the number of condensates for each cell to obtain the mean size (A) of the condensates, followed by the formula of R = √(A/3.14).

NIH3T3 cells [5] = experiment: FRAP of GFP-TNS3 in adhesions; type: cell-based, mouse; conditions: vs TNS3-WT; 37°C; n = 27 (WT) and 26 (L702E) adhesions
Method: Transfected NIH3T3 cells were incubated in prewarmed DMEM medium at 37°C for 1 h to equilibrate prior to imaging. FRAP experiments were performed using a spinning disk confocal microscope as described above. Slidebook software (version 6.0.3, 3I) was used to set up the experiment. Regions of interest (ROIs) were manually adjusted to the shape of adhesion. A 488-nm laser was used at 100% power to bleach one to three adhesion ROIs per cell. Three prebleach images were acquired, followed by one image every 10 s for 3 min after bleach. Time-lapse images were analyzed using FIJI/ImageJ software ([Schindelin et al., 2012]) to obtain the intensity values of three control unbleached control ROIs and bleached ROIs over time. Values were background-subtracted, and measurements were corrected with the control values of the unbleached ROIs to compensate for any overall fluorescence loss. Intensity values were then normalized to the first postbleach value; normalized data were fitted to a one-phase association model Y=Y0+(Plateau-Y0)*(1-exp(-K*x)) using GraphPad Prism 10 software. Coefficients of the curve fit were extracted and transformed to generate the mobile fraction and halftime of recovery.

B1: TNS3-L702E: tensin3 carrying the L702E point mutation that blocks the interaction with talin (protein, UniProt Q68CZ2 1-1445, looked up, variant L702E)
Tensin-3: MEEGHGLDLTYITERIIAVSFPAGCSEESYLHNLQEVTRMLKSKHGDNYLVLNLSEKRYDLTKLNPKIMDVGWPELHAPPLDKMCTICKAQESWLNSNLQHVVVIHCRGGKGRIGVVISSYMHFTNVSASADQALDRFAMKKFYDDKVSALMQPSQKRYVQFLSGLLSGSVKMNASPLFLHFVILHGTPNFDTGGVCRPFLKLYQAMQPVYTSGIYNVGPENPSRICIVIEPAQLLKGDVMVKCYHKKYRSATRDVIFRLQFHTGAVQGYGLVFGKEDLDNASKDDRFPDYGKVELVFSATPEKIQGSEHLYNDHGVIVDYNTTDPLIRWDSYENLSADGEVLHTQGPVDGSLYAKVRKKSSSDPGIPGGPQAIPATNSPDHSDHTLSVSSDSGHSTASARTDKTEERLAPGTRRGLSAQEKAELDQLLSGFGLEDPGSSLKEMTDARSKYSGTRHVVPAQVHVNGDAALKDRETDILDDEMPHHDLHSVDSLGTLSSSEGPQSAHLGPFTCHKSSQNSLLSDGFGSNVGEDPQGTLVPDLGLGMDGPYERERTFGSREPKQPQPLLRKPSVSAQMQAYGQSSYSTQTWVRQQQMVVAHQYSFAPDGEARLVSRCPADNPGLVQAQPRVPLTPTRGTSSRVAVQRGVGSGPHPPDTQQPSPSKAFKPRFPGDQVVNGAGPELSTGPSPGSPTLDIDQSIEQENRLILELDPTFEPIPTHMNALGSQANGSVSPDSVGGGLRASSRLPDTGEGPSRATGRQGSSAEQPLGGRLRKLSLGQYDNDAGGQLPFSKCAWGKAGVDYAPNLPPFPSPADVKETMTPGYPQDLDIIDGRILSSKESMCSTPAFPVSPETPYVKTALRHPPFSPPEPPLSSPASQHKGGREPRSCPETLTHAVGMSESPIGPKSTMLRADASSTPSFQQAFASSCTISSNGPGQRRESSSSAERQWVESSPKPMVSLLGSGRPTGSPLSAEFSGTRKDSPVLSCFPPSELQAPFHSHELSLAEPPDSLAPPSSQAFLGFGTAPVGSGLPPEEDLGALLANSHGASPTPSIPLTATGAADNGFLSHNFLTVAPGHSSHHSPGLQGQGVTLPGQPPLPEKKRASEGDRSLGSVSPSSSGFSSPHSGSTISIPFPNVLPDFSKASEAASPLPDSPGDKLVIVKFVQDTSKFWYKADISREQAIAMLKDKEPGSFIVRDSHSFRGAYGLAMKVATPPPSVLQLNKKAGDLANELVRHFLIECTPKGVRLKGCSNEPYFGSLTALVCQHSITPLALPCKLLIPERDPLEEIAESSPQTAANSAAELLKQGAACNVWYLNSVEMESLTGHQAIQKALSITLVQEPPPVSTVVHFKVSAQGITLTDNQRKLFFRRHYPVNSVIFCALDPQDRKWIKDGPSSKVFGFVARKQGSATDNVCHLFAEHDPEQPASAIVNFVSKVMIGSPKKV
modifications: mCherry or GFP tag
- formation of vinculin-positive FA (U2OS TNS3KO cells [1]): no difference
- subcellular localization of construct under blebbistatin (U2OS TNS3KO cells [2]): almost exclusively found in the LLPS condensates in the cytoplasm
- construct-positive adhesions after blebbistatin (NIH3T3 cells [3]): mostly disappear
- Spearman's r, expression level vs condensate coverage (NIH3T3 cells [4]; n = 181 cells (WT), 168 cells (L702E)): 0.9013
- fold increase in number of condensates (NIH3T3 cells [4]; vs TNS3-WT, condensates >0.1 μm^2, circularity 0.7–1, n = 68 (WT) and 100 (L702E) cells): 2.2 fold
- condensate size (NIH3T3 cells [4]; vs TNS3-WT, mean radius): larger
- halftime of recovery (FRAP) (NIH3T3 cells [5]): significantly higher
- mobile fraction (FRAP) (NIH3T3 cells [5]): significantly higher
